Patent US20200270301A1 (UBIPROTEIN, published 2020)

Target: T1, HA-ubiquitin (expressed from pMT123-HA-ubiquitin) (UniProt P0CG48 1-76)
T1 construct: Co-expressed in HEK 293T cells and detected with anti-HA after anti-myc immunoprecipitation; It attaches covalently (isopeptide bond, polyubiquitin chains); P0CG48 is the polyubiquitin-C precursor; a single ubiquitin unit is 76 residues; not shown: HA tag of the pMT123-HA-ubiquitin plasmid
Test: covalent ubiquitination in HEK 293T cells: anti-myc IP, anti-HA Western blot

binding result: binds
B1: myc-EGF WT (expressed from pcDNA3-myc-EGF WT) (ligand)
chain: NSDSECPLSHDGYCLHDGVCMYIEALDKYACNCVVGYIGERCQYRDLKWWELR
modifications: not fully specified
notes: Expressed inside HEK 293T cells; also called human EGF; not shown: myc tag of the pcDNA3-myc vector
